The record followed here is patent US20040214988, “Method for stabilization of proteins using non-natural amino acids” (California Institute of Technology, published 2004).

For data set [1], the target named is Tfl-bZip (GCN4 bZip segment 226-281 with Tfl-GCN4-p1 dimerization domain) four d-position Leu of the GCN4-p1 zipper replaced by 5,5,5-trifluoroleucine (UniProt P03069). In words: EMSA. Conditions: densitometry of mobility shift.
For data set [2], the target named is T1, Leu-bZip (GCN4 bZip segment, residues 226-281) (UniProt P03069 P03069:226-281). Put plainly: EMSA; densitometry of mobility shift. The following applies: protein: synthetic; tags: 56-residue peptide; chain copies: 2 (stated, dimer).
T1 sequence (P03069 226-281, one chain of several): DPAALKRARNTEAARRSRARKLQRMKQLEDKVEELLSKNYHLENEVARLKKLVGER
The target in data set [3] is T1, Leu-bZip (GCN4 bZip segment, residues …). Put plainly: EMSA; no protein-bound DNA seen. The following applies: protein: synthetic; tags: 56-residue peptide; chain copies: 2 (stated, dimer).

Sequence of Tfl-bZip (GCN4 bZip segment 226-281 with Tfl-GCN4-p1 dimerization domain) four d-position Leu of the GCN4-p1 zipper replaced by 5,5,5-trifluoroleucine (P03069 whole entry, the tested form may be a part): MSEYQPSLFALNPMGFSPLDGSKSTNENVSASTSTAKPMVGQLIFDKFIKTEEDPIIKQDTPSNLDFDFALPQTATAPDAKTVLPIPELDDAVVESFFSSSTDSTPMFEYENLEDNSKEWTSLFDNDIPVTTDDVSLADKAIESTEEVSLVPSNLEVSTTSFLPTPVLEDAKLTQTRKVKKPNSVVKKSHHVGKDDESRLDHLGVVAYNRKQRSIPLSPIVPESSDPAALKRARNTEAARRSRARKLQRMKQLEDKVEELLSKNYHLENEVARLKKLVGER

In the case of “GTGGAGATGACTCATCTCCGG (double strand) [AP-1 site oligonucleotide]”, the Kd in data set [1] stood at 12.5 nM. Turning to “TGGAGATGACGTCATCTCCT (double strand) [CREB site oligonucleotide]”, the Kd in data set [1] (CD at 0 C also shows coil-to-helix transition on CREB DNA) turned out to be 5.4 nM.

B1: AP-1 site oligonucleotide (dsDNA)
DNA 1: GTGGAGATGACTCATCTCCGG
DNA 2: CCGGAGATGAGTCATCTCCAC
Take B1: in data set [2], the Kd amounted to 12.8 nM.

B2: NON nonspecific oligonucleotide (dsDNA)
DNA 1: GATCCCAACACGTGTTGGGATC
DNA 2: GATCCCAACACGTGTTGGGATC
Take B2: the binding result in data set [3] is given as “no binding”.
